Test results: the nanobody polyreactivity screen of Harvey et al. (2022)

Test: yeast display, Sf9 membrane polyspecificity reagent, FACS + sequencing; frameworks hold sequencing errors
How it was run: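 Galactose induction of a Saccharomyces cerevisiae BJ5465 synthetic nanobody display library ran 36–48 hours. The cells were then stained for 1 hour at 4 °C with 10% biotinylated, detergent-solubilized Sf9 membrane reagent, pulled down on streptavidin microbeads and FACS-sorted into low and high (top ~1%) gates on expression and reagent-binding fluorescence. Labels for polyreactivity follow the gate of origin.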

Row | Sequence | polyreactivity (PSR sort gate)
1 | QVQLGETGGGLVQAGGSLRLICAASGSTFTINGMGWSRQAPGKDRELVAAITSGGSTYYADSVKGRFTISRDNAKNTVYLQMNSLKPEDTAVYFCAAADGRDYWGQGTQVTVSS | low polyreactivity
2 | QVQLVQSGGGLVQAGGSLRLSCAASGSTFLSKAMGWYRQAPWKERQLVAAITTSGTSTFYADSVKGRFTISRDNAKNTVYLQMNSLKPADTAVYCAKDYLPYLHFVAPSTGDYDYWGQGTQVTVSS | low polyreactivity
3 | QVQLVESGGGLVQAGGSLRLSCAASGSIFFFNAMGWYRQAPGKERELVAAISESGTSTYYADSVKGRFTISRDNAKNTVFLQMNSLKPEDTAVFYCKVVFRYAYGVYYTPEFYYWGQGTQVTVSS | low polyreactivity
4 | QVQLVESGGGLVQAGGSLRLSCAASGRIFTGNSMGWYRQAPGKERELVAAITSSGGSTYYADSVKGRFTISRDNAKNTVYLQMNSLKPDDTAVYYCAALYSSWWSWYYYWGQGTQVTVSS | high polyreactivity
5 | QVQLVQSCGCLVQAGGSLRLSCAASGRIFYGNDMGWNRQAPGKERDLVAAISSGTSTNYADSVKGRFTISRDNAMNTVYLQMNSLKPEVTAVYYWAAGSYSRYLYSLYFDFDYWGQGSQVTVSS | low polyreactivity
6 | QVQLVESGGGLVQAGGSLRLSCAASGFIFVENAMGWYIQAPGKERELVASISRRGGSTYYADSVKGRFTISRDNAKNTVYLQMNSLKPEDTAVYYCAATLGRTRYNYWGQGTQVTVSS | high polyreactivity
7 | QVQLVESGGGLVQAGGSIRLSCSASGSTFNIYAMGWYRKAPGKERELVAAISGNGDRTYYADSVKGRFTISRDNAKNTVYLQMTSLKPEDTAVYYCAAKYYGWGQGTQVTVSS | high polyreactivity
8 | QVQLVESGRGLVQAGGSLRLSCAASGSIFRGNAMGWYRQAPGKERELVAAMTKRGGSTYYADSGKGRFTISRDNAKNTDKFQMNSLKPEDTAVYYFAAKPSYRYYKSYDYWGQGTQVTVSS | high polyreactivity
9 | QVQLVESGGGLVQAGGSLRLSCAASGRTFWFYTMGWYRQAPGKERELVAAISSGGSTNYADSVKGRFTISRDNAKNTVYLQMNSLKPEDTAVYYCNARFPVGPSEDAVWYYPKYDYWGQGTQVTVSS | low polyreactivity
10 | QVQLGESGGGLVQAGGSLRLSCAASGRTFDKNAMGWYRQAPGKERELVATISSGGSTYYADSVKGRFTISRDNAKNTVYLQMNSLKPEDTAVYYCNARGVRATRRRYGYWGQGTQVTVSS | low polyreactivity
11 | QVQLVESGGGLVQAGGSLRLSCAASGRTSDGYAMGWYRPAPGKERELVAGITEGGGDTYYADSVKGRFTISRDNAKNTVYLQMNSLKPEDTAVYYCNAVEGSRLPYDYWGQGTQVTVSS | low polyreactivity
12 | QVHLVESGGGLVQAGGSLRLSCAASAFIFNRNAMGGYRQAHGKERELVAAISRSGGRTYYADSVKGRFTISRDHAKNTVYIQMNSLKPEDTAVYYCATEGYHGEFDYWGQGTQVTVSS | high polyreactivity
13 | QVQIVESGGGLVQAGGSLRLSCAASGLIFVVYAMGWNRQATGIERELVADISSVGRTSYADSVKGSFTISRDNAKNNVYLQMNSLKPEDTAVYYCNAYPVFNQYYCWRYDYLGQGTQVTVSS | low polyreactivity
14 | QVQLVESGGGLVQAGGSLRLSCAASGFTFYSKAMGWYRQAPGKERQLVATIRSDGRTNYADSVKGRFTISRDNAKNTVYLQMNSLNPEDTAVYYCNADYRNDWGTPLWYAYNYWGQGTQVTVSS | low polyreactivity
15 | QVQLVETGAGLVQAGGSLRLSCAASGRTYVYNAMGWYRQAPGKERELVAAIDGGGDRTYYADSVKGRFTISRDNAKNTVYLQMNSRKPEDTAVYYCARDQGDTYYYSYPEGDYWGQGTQVTVSS | low polyreactivity
16 | QVQLVESGGGLVQAGGSLRLICAASGSISYYNAMGRYRQAPGKERELVADITSGGGTYYADSVMGGFTISRDNAKNTVFLQMNSLKPEDTAVYYCAKDYGFTGYGYWGQGTQVTVSS | low polyreactivity

Row | Sequence | polyreactivity (PSR sort gate)
17 | QVQLVESGGGLVQAGGSLRLSCAASGRIFWQYAMGWYRQAPGNERELVAGITSNGGSTYYADSVKGRFTISRDNAKNTVYLQMNSLKPEDTAVYYCNKVRPGWTYEYGYWGQGTQVTVSS | high polyreactivity
18 | QVQLVESGGGLVQAGGSLRLSCAASGFTFHRNAMGWYRQAPGKERELVAAISTRGGSTAYADSVKGRFTISRDTAKNNVYLQMNSLKPEDTAVYYCNTRYVGQRSTWVDQVRRYDYWGQGTQVTVSS | high polyreactivity
19 | QVQLVESGGGLVQAGGSLRLSCAASGSIFRANAMGGYRQAPGKERELVATISSGGSTNYADSVKGRFTISRDNAKNTVYLQMNSLKPEDTAVYYCAVKWYPPGHDYWGQGTQVTVSS | low polyreactivity
20 | QVQLVESGGGLVQAGGSLRLSCAASGYTFYLYAMGWYRQAPGKESELVAAISTNGGRTYYADSVKGRFTISRDNAKNTVYLQMNSLKPEDTAVYYCAVRSRGTAPQYYYWGQGTQVTVSS | high polyreactivity
21 | QVQLVESGGGLVQAGGSLRLSCAASGTTFRFYAMGLYRQAPGKERELDAAINGSGGSTYYADSVKGRFTISRDNAKNTVYFQMISMKPEDTAVYYCAADGVPDALDRDYWGQGTQVNVSS | low polyreactivity
22 | QVQLVESGGGLVQAGGSLRLSCAASGSIFTFYAMGWYRQAPGKERELVATITISTGSTYYADSVKGRFTISRDNAKNTVYFQMNSLKPEDTAVYYCNAYISRRGKRGYNYWGQGTQVTVSS | high polyreactivity
23 | QVQLVESGGGLVQAGGSLRLSCAASGGIFRVYAMGWYRQAPGKERELVAAISRSGSSTYYADSVKGRFTISRDNAKNTVYLQMNSLKPEDTAVYYCNAYSQYWLGNNYWGQGSQVTVSS | high polyreactivity
24 | QVQLVESGGGLVQAGGSLRLSCAASGRIFRLYVMGWYRQAPGKERELVATISSRGGSTYYADSVKGRFTISRDNAKNTVYLQMNSLKPEDTAVYYCAAVSRYRYGYDYWGQGTQVTVSS | high polyreactivity
25 | QVHLVESGGGLVQAGGSLRLSCAASGSIFSSYAMGWYRQAPGKEREFVAAISWGGGSTYYADSVKGRFTISRDNAKNSVYLQMNSLKPEDTAVYYCAVETWLYPYDYWGQGTQVTVSS | high polyreactivity
26 | QVQLEESGGVLVQAGGSLRLTCAAAGSILAYNSMGWYREAPGKERELVAAISWTGRTYYADSVKGRFTISRDNEKNTVYLQMNSLIPEDTAVYYCNARGRQRSRGSQIYDYWGQGTQVTVSS | high polyreactivity
27 | QVQLEESGGGLVQAGGSLRLSCAASGFTIGYNAKGWYRQATRKERELVAAIRSTGSTNYADSVKGRFTISRDYAKNTVYLQMNSLKPEDTAVYYGAAGRNAAIVYDYDYWGQGTQVTVSS | low polyreactivity
28 | QVQLVESGGGLVQAEGRLRLSCAASGRIFPHYAMGWYRQAPGKERELVAAISRSGVSTYYADSVKGRFTISRDIAKNTVYLQMNSLKPEDTAVYYCASRSYILGWRYDYWGQGTQVTVSS | high polyreactivity
29 | QVQLVESGGGLGQAGGSLRLSCAASGSIYNDNVMGWYRQAPGKERELVAGISRSGTRTYYADSVKGRFTISRDNAKNTVYLQMNSLKPEDTAVYYCAAAYGQARRYNASQYGSWGQGTQVTVSS | high polyreactivity
30 | QVQLVESGGGLVQAGGSLRLSCAASGITFYSNAMGWYRQAPGKERELVATITRGGSTYYADSVKGRFTISRDNAKNTVYLQMNSLKPEDTAVYYCAADYSYRGREYGYWGQGTQVTVSS | low polyreactivity
31 | QVQLVESGGGLVQAGGSLRLSCAASGFIFSSYAMGWYRQAPGKESELVAAITSGGSTNYADSVKGRFTISRDNAKNTVYLQMNSLKPEDTADYYCATLPGGSWFFHWWSTGGDDEYWGQGTQVTVSS | low polyreactivity
32 | QVQLVESGGGLVQAGGSLRLSCAASGSTVRGYAKGWYRQAPGKERELGAAITWSGGTTYYADSVKGRFTISRDNAKTTVYLQMNSLKPEDTAVYYCAAQNWDSDPYDYWGQATQVTVSS | low polyreactivity
